Positions count from the first letter of the chain named.

We go through 1 substance from article PMC4837482, “The complex binding mode of the peptide hormone H2 relaxin to its receptor RXFP1” (Nature Communications, 2016).

Experiment in all cases: cAMP activity assay (pCRE β-galactosidase reporter), transfected HEK293T cells
Common to all, as to assay type: cell-based

Assay [1] concerns the target T1, RXFP1 A55S (Homo sapiens, UniProt Q9HBX9, A77S).
T1 construct: cells expressing full-length RXFP1 and mutants; expressed in transfected cells; host or cells: HEK293T
T1 sequence (Q9HBX9 23-757 A77S limits assumed): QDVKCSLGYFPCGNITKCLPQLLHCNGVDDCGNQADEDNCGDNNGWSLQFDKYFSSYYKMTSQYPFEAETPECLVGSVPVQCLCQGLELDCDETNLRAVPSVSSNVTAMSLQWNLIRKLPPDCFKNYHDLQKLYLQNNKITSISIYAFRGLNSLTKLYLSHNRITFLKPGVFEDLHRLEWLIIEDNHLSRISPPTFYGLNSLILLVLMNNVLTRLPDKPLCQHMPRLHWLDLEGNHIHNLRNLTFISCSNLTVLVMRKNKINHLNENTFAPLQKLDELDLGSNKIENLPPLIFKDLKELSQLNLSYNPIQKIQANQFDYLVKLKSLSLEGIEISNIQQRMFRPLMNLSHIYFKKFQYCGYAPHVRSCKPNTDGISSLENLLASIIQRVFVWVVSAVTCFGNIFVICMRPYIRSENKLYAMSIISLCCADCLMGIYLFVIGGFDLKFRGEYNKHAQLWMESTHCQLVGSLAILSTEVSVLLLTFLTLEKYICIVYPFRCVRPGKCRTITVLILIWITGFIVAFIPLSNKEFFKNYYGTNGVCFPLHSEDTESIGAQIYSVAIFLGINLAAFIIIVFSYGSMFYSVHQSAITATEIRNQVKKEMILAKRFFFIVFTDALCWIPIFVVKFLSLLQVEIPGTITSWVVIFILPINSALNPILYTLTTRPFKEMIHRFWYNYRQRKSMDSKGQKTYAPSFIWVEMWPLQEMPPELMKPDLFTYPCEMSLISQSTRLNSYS
The conditions noted are these: construct A55S, ±s.e.m. An outline of the steps:
(§1)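 Receptor signalling is measured as CRE-driven β-galactosidase activity after H2 relaxin exposure, using a colorimetric substrate read at 570 nm. Values are normalised to 5 μM Forskolin, pooled from at least three independent triplicate experiments.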

Assay [2] has as its target T2, RXFP1 A68^Δ (Homo sapiens, UniProt Q9HBX9, DEL90-90).
T2 construct: transiently transfected human embryonic kidney (HEK) 293T cells expressing full-length RXFP1 and mutants; expressed in transfected cells; host or cells: HEK293T
T2 sequence (Q9HBX9 with tags, fused parts or gaps DEL90-90 limits assumed): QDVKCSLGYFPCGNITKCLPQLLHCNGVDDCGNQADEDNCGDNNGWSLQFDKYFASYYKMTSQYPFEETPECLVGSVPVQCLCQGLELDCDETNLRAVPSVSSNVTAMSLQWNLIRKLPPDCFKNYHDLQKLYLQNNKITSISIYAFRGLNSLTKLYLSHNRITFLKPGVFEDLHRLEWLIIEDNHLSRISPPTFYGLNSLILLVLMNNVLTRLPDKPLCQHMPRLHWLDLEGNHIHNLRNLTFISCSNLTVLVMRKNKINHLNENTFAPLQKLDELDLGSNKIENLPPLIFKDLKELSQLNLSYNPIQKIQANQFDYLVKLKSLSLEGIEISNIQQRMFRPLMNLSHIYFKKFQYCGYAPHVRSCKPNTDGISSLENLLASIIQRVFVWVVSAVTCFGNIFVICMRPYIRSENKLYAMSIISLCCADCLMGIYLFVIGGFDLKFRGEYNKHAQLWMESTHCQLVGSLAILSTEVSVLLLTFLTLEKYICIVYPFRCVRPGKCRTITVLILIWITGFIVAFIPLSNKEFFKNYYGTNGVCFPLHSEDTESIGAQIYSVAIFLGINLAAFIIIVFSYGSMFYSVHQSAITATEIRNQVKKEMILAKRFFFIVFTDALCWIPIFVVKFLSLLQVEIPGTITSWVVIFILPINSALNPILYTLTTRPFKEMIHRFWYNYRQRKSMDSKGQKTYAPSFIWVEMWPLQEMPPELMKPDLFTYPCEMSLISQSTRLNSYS
The settings on record: construct A68^Δ, ±s.e.m. The gist of the method:
as §1

The target in assay [3] is T3, RXFP1 W46A (Homo sapiens, UniProt Q9HBX9, W68A).
T3 construct: transiently transfected human embryonic kidney (HEK) 293T cells expressing full-length RXFP1 and mutants; expressed in transfected cells; host or cells: HEK293T
T3 sequence (Q9HBX9 23-757 W68A limits assumed): T1 sequence (Q9HBX9 23-757 A77S limits assumed) with W46A, S55A
The conditions noted are these: construct W46A, ±s.e.m. The gist of the method: as §1

Setting [4] is: percentage of maximum response to 5 μM Forskolin.

Consider “H2 relaxin: two-chain 6-kDa peptide hormone structurally related to insulin; recombinant human gene-2 H2 relaxin provided by Corthera”, for which the figures for the “H2 relaxin pEC50” value in assay [1] (cAMP reporter), in assay [2] (cAMP reporter) and in assay [3] (cAMP reporter) were 11.39±0.13 (5), 11.18±0.02 (3) and 7.02±0.18 (3), respectively. The “H2 relaxin Emax” value in assay [1] (setting [4]) is 154.43±39.77 (5) %; in assay [2] (setting [4]), 93.78±3.19 (3) %; in assay [3] (setting [4]), 109.6±13.69 (3) %.
